Test results reported in patent publication US20150087596A1.

What was measured:
[1] = biological target: human Nav1.2 (sodium channel protein type 2 subunit alpha) (human) (UniProt Q99250); experiment: cell-based or functional assay
[2] = biological target: human Nav1.7 (sodium channel protein type 9 subunit alpha) (human) (UniProt Q15858); experiment: cell-based or functional assay

recombinant Huwentoxin-IV (peptide)
IC50, veratridine-induced depolarization inhibition assay [1]: 342 nM | IC50, veratridine-induced depolarization inhibition assay [2]: 159 nM | ratio of IC50 for Nav1.2 to IC50 for Nav1.7 [2]: 2.14
